What follows are binders tested against SARS-CoV-2 nucleocapsid protein (N-protein) (SARS-CoV-2, UniProt P0DTC9 1-419) (assay: SV-AUC).
In the case of TTTTTT (ssDNA) [T6], the Kd is reported as 290 nM. TTTTTTTTTT (ssDNA) [T10] gave a Kd of under 100 nM. With GTGT (ssDNA) [(GT)2] the Kd was over 10000 nM.

From publication PMC8103780
